Measured values: PMC8715211

Biological target: HIV-1 matrix MA1-131 (HIV-1, UniProt C1JB69 2-132)
Test: ITC

B1: human tRNALys3, in vitro transcribed (structured_RNA)
RNA: GCCCGGAUAGCUCAGUCGGUAGAGCAUCAGACUUUUAAUCUGAGGGUCCAGGGUUCAAGUCCCUGUUCGGGCGCCA
modifications: unmodified transcript
  Kd: 270 ± 20 nM
